This is an account of results in paper PMC11352577.

As usually defined, the Kd is a measure of binding affinity in units of concentration. High values mean lower affinity, low ones higher affinity.

Experiment [1] concerns the target CD64 (FcγRI) on human primary monocytes and monocyte-derived macrophages (human (endogenous in primary monocytes)) (UniProt P12314).
Experiment [2] concerns the target human KIR3DL1 extracellular domains fused to mouse IgG2a Fc with Avi tag, biotinylated (human) (UniProt P43629). Description: SPR; Biacore T200; biotinylated KIR3DL1 immobilised; IOS-1002 as analyte; HBS-EP, 25 °C; steady-state fits, averaged. (SPR reads the build-up and loss of mass on a sensor chip optically.)
Experiment [3] shares this target. Nature of the experiment: SPR; Biacore T200; biotinylated receptors immobilised on Series S CAP chip; IOS-1002 as analyte, 5 concentrations 6 to 0.375 uM; HBS-EP, 25 °C; 1:1 fit.

UniProt P43629, sequence (P43629 22-340): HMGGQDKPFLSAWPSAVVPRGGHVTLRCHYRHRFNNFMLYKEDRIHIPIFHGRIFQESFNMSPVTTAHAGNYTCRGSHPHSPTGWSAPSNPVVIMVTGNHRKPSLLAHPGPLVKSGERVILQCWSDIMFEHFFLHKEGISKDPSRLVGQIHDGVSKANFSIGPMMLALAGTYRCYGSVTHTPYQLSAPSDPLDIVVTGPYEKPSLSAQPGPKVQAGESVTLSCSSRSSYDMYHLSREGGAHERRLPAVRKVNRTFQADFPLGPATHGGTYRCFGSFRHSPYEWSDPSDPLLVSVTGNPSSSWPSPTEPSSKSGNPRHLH
UniProt P12314, sequence (P12314 16-374): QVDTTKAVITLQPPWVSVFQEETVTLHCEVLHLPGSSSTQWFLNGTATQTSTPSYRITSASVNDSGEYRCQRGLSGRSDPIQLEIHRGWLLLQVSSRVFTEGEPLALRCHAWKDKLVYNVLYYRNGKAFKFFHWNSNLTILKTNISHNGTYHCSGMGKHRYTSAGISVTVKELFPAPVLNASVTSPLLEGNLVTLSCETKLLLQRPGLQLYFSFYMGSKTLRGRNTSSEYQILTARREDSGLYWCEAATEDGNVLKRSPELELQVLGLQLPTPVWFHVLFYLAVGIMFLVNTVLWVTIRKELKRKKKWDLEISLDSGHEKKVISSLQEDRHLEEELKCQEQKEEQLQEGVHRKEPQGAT

Consider “IOS-1002 (HLA-B57^(A46E/V97R).B2m-IgG4_Fc) (from UniProt P61769 21-119) (Fc fusion)”, for which, in experiment [1], the macrophage phagocytosis of H460 cells, dose response (EC50) was 0.00333 µM. For the same substance, the Kd turned out to be 7.48 µM in experiment [2] and 3.28 µM in experiment [3].
